{
  "source": "patent US7740850B2",
  "about": "“PDGFRβ-specific antibodies” (ImClone, LLC, priority 2007, dated 2010)",
  "molecules": {"B1": {"name": "1B3: human anti-mouse PDGFRβ antibody from Fab phage display library, human κ/γ1 constant regions; SEQ ID NOS in Table 1 (antibody, listed as Homo sapiens, V domains shown)", "VH": "QVQLQESGGGLVKPGGSLRLSCAASGFTFSSYSMNWVRQAPGKGLEWVSSISSSSSYIYYADSVKGRFTISRDNSKNTLYLQMNSLRAEDTAVYYCAKGGRPLLVFDFWGQGTLVTVS", "VL": "EIVMTQSPGTLSLSPGERATLSCRASQSVSSSYLAWYQQKPGQAPRLLIYDASKRATGIPARFSGSGSGTDFTLTISTLESEDSAVYYCQQRGYWPPITFGQGTRLEIKR", "modifications": "human kappa/gamma1 constant regions"}, "B2": {"name": "2C5: PDGFRβ-specific human antibody binding both human and murine PDGFRβ; SEQ ID NOS in Table 1 (antibody, listed as Homo sapiens, V domains shown)", "VH": "QVQLVQSGAEVKKPGSSVKVSCKASGGTFSSYAISWVRQAPGQGLEWMGRIIPILGIANYAQKFQGRVTITADKSTSTAYMELSSLRSEDTAVYYCARDMGSRNYYYFYWGQGTLVTVSS", "VL": "EIVLTQSPATLSLSPGERATLSCRASQSVGRYLAWYQQKPGQAPRLLIYGASNRATGIPARFSGSGSGTDFTLTISSLEPEDFAVYYCQQRSNWPLTFGGGTKVEIK"}},
  "key": {"[1]": {"tested_on": "human PDGFRβ", "sequence (P09619 33-532 limits assumed)": "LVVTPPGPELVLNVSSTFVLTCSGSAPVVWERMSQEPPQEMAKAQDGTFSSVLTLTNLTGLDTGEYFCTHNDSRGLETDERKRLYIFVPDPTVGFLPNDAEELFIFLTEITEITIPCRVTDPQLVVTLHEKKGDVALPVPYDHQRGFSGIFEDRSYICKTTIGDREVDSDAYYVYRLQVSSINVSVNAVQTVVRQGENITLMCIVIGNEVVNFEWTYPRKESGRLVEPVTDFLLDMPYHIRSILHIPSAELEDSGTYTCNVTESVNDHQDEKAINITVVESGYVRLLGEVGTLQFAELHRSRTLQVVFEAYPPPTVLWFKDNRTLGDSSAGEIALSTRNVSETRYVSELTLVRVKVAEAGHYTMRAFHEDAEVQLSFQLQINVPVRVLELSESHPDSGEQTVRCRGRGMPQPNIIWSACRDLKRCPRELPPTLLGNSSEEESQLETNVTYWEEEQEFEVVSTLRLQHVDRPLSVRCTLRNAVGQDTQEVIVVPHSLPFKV", "assay": "Cross-reactivity binding test (soluble recombinant protein or cell-surface receptor on human tumor cell lines)", "details": "soluble recombinant protein or cell-surface-expressed receptor on human tumor cell lines"}, "[2]": {"tested_on": "OV-CAR-8 ovarian carcinoma xenograft", "assay": "Subcutaneous tumor xenograft model", "type": "in vivo, mouse", "details": "for Tumor Volume T/C %: OVCAR-8 xenograft, monotherapy", "method": "(§1) Six xenograft models, SK-OV-3, OV-CAR-8, BxPC-3, OV-CAR-5, Caki-1 and NCI-H460 (A to F, respectively) were used to examine the effects of 1B3 on xenograft tumors in athymic nude mice. Mice with established tumors (˜250-300 mm^3) were randomly grouped and treated with 1B3, normal human IgG, or saline by intraperitoneal injection twice weekly (except for BxPC-3 model where the mice were treated three times a week) at the dose indicated. Tumor volumes were measured twice a week and are presented as mean±SEM. *1 indicates the loss of one mouse due to severe illness. 1B3 binds to mouse, but not human, PDGFRβ. Accordingly, the observed responses to treatment result from inhibition of stimulation of host cells.\n(§2) Antitumor activity of anti-mPDGFRβ antibody in tumor xenograft models. Six human xenograft tumor models, including three ovarian carcinoma (SK-OV-3, OV-CAR-5 and OV-CAR-8), one pancreatic carcinoma (BxPC3), one lung carcinoma (NCI-H460), and one kidney carcinoma (Caki-1), were used to assess the antitumor activity of 1B3 in vivo. Athymic (nu/nu) mice (female, 7-8 weeks of age) were housed for 7-10 days before xenograft implantation. Each mouse was injected subcutaneously with 3-10×10^6 cells of SK-OV-3, OVCAR-5, OVCAR-8, Caki-1, BxPC3 or NCI-H460 tumor cells. When tumors reached approximately 250-300 mm^3, mice were randomized into groups of 10 to 12 animals each and treated by intraperitoneal injection, 2 to 3 times per week, with 1B3, DC101, or 1B3 in combination with DC101. Human IgG and/or USP saline were used as control groups. Tumor sizes and mouse body weight were measured twice a week. Tumor volume was calculated using the formula: π/6×(length×width^2), where length=longest diameter and width=diameter perpendicular to length. The ratio of average tumor volume in the treatment group versus that in the control group (T/C %) was calculated. Statistic analysis was performed by Student's t-test.\n(§3) To study the antitumor effects of monotherapy with an anti-PDGFRβ antibody, mice were treated with 1B3, normal human IgG, or saline twice weekly by intraperitoneal injections. In SK-OV-3 model, tumor-bearing mice were given 1B3 at 6, 20, or 60 mg/kg dose.\n(§4) Antitumor activity of anti-PDGFRβ antibody in tumor xenograft models. The five human xenograft tumor models described above (OVCAR-5 and OVCAR-8, BxPC3, NCI-H460, and Caki-1) were used to assess the antitumor activity of 2C5 in vivo. 2C5 which binds to and inhibits human PDGFRβ receptors of the tumor and mouse receptors of the vasculature was compared to 1B3 which bound only to mouse vasculature. […] (FIG. 9; Table 2)."}, "[3]": {"tested_on": "OV-CAR-5 ovarian carcinoma xenograft", "assay": "Subcutaneous tumor xenograft model", "type": "in vivo, mouse", "details": "for Tumor Volume T/C %: OVCAR-5 xenograft, monotherapy", "method": "as §1, §2, §3, §4"}, "[4]": {"tested_on": "Caki-1 kidney carcinoma xenograft", "assay": "Subcutaneous tumor xenograft model", "type": "in vivo, mouse", "method": "as §1\nAntitumor activity of anti-mPDGFRβ antibody in tumor xenograft models. Six human xenograft tumor models, including three ovarian carcinoma (SK-OV-3, OV-CAR-5 and OV-CAR-8), one pancreatic carcinoma (BxPC3), one lung carcinoma (NCI-H460), and one kidney carcinoma (Caki-1), were used to assess the antitumor activity of 1B3 in vivo. […] Tumor sizes and mouse body weight were measured twice a week. Tumor volume was calculated using the formula: π/6×(length×width^2), where length=longest diameter and width=diameter perpendicular to length. The ratio of average tumor volume in the treatment group versus that in the control group (T/C %) was calculated. […]"}, "[5]": {"tested_on": "β1-3", "assay": "Epitope mapping, shorter version of PDGFRβ (D1D2D3)", "type": "binding", "details": "✓ / X, key not given", "method": "(§5) 2C5 binds to domain 1 (D1) and domain 2 (D2) of PDGFRβ. Various chimeric constructs of PDGFRβ and PDGFRα were first made by domain swapping, starting from N-terminus to C-terminus with PDGFRβ domain(s) replacing PDGFRα domain(s). The PDGFRβ/α chimera were tested for the ability of 2C5 binding. Shorter versions of PDGFRβ, including D1D2, D2D3 and D1D2D3, were then made to confirm the 2C5 binding domains on PDGFRβ."}, "[6]": {"tested_on": "4β1α", "assay": "Epitope mapping, PDGFRβ/α chimera", "type": "binding", "details": "✓ / X, key not given", "method": "as §5"}, "[7]": {"tested_on": "3β2α", "assay": "Epitope mapping, PDGFRβ/α chimera", "type": "binding", "details": "✓ / X, key not given", "method": "as §5"}, "[8]": {"tested_on": "OVCAR8 cells", "assay": "PDGF-BB-stimulated cell migration, two-chamber technique", "type": "cell-based, human", "details": "antibody 30 μg/ml, PDGF-BB 100 ng/ml, 4 hours", "method": "(§6) 2C5 inhibits PDGF-BB-stimulated cell migration in a cell-based migration assay. Two-chamber technique was used to determine the inhibitory ability of 2C5 in cell migration with NCI-H460, OVCAR8, WS-1 and U-118 cell lines. Collagen (100 μg/ml) was added to the up chamber (100 μl) and the lower chamber (150 μl) and incubated at 37° C. for 1 hour. After washing the chambers twice with PBS, 100 μl of starved cells (estimated 0.5-10×10^6/ml in serum-free medium) were added to the up chamber and 150 μl of serum-free medium was added to the lower chamber and then incubated at 37° C. for 4 hours. […] In 2C5 wells, 2C5 were added into the up chamber at a final concentration of 30 μg/ml. Non-migrated cells in the up chamber were scraped from the membrane. After washing three times with PBS, migrated cells on the membrane of the lower chamber side were fixed with 4% formalin and stained with Hoechst (4 μg/ml). The results were captured and cells were counted under fluorescence microscopy."}, "[9]": {"tested_on": "NCI-H460 cells", "assay": "PDGF-BB-stimulated cell migration, two-chamber technique", "type": "cell-based, human", "details": "antibody 30 μg/ml, PDGF-BB 100 ng/ml, 4 hours", "method": "as §6"}, "[10]": {"tested_on": "2β3α", "assay": "Epitope mapping, PDGFRβ/α chimera", "type": "binding", "details": "✓ / X, key not given", "method": "as §5, with “Various” for “2C5 binds to domain 1 (D1) and domain 2 (D2) of PDGFRβ. Various”"}},
  "data": [
    {"molecule": "B1", "values": [
      {"measurement": "cross-reactivity, binding to human PDGFRβ", "setting": "[1]", "value": "No cross-reactivity was observed"},
      {"measurement": "tumor growth inhibition", "setting": "[2]; OV-CAR-8, 60 mg/kg i.p. twice weekly", "value": "almost completely blocked the growth"},
      {"measurement": "Tumor Volume T/C %", "setting": "[2]", "value": 43, "unit": "%"},
      {"measurement": "antitumor activity", "setting": "[3]; OV-CAR-5, 40 mg/kg three times per week or 60 mg/kg twice weekly", "value": "failed to show any antitumor activity"},
      {"measurement": "Tumor Volume T/C %", "setting": "[3]", "value": 92, "unit": "%"},
      {"measurement": "antitumor activity", "setting": "[4]; Caki-1, 40 mg/kg three times per week or 60 mg/kg twice weekly", "value": "failed to show any antitumor activity"},
      {"measurement": "Tumor Volume T/C %", "setting": "[4]; Caki-1 xenograft, monotherapy", "value": 65, "unit": "%"}
    ]},
    {"molecule": "B2", "values": [
      {"measurement": "binding to β1-3", "setting": "[5]", "value": "✓"},
      {"measurement": "Tumor Volume T/C %", "setting": "[2]", "value": 39, "unit": "%"},
      {"measurement": "Tumor Volume T/C %", "setting": "[3]", "value": 84, "unit": "%"},
      {"measurement": "binding to 4β1α", "setting": "[6]", "value": "✓"},
      {"measurement": "binding to 3β2α", "setting": "[7]", "value": "✓"},
      {"measurement": "inhibition of PDGF-BB-stimulated cell migration", "setting": "[8]", "value": "inhibited PDGF-BB-stimulated cell migration completely"},
      {"measurement": "inhibition of PDGF-BB-stimulated cell migration", "setting": "[9]", "value": "inhibited PDGF-BB-stimulated cell migration completely"},
      {"measurement": "binding to 2β3α", "setting": "[10]", "value": "✓"}
    ]}
  ]
}
